Assay results: patent publication US7579445

What was measured:
[1] = molecular target: surface of P815-PSA cells (PSA-transfected DBA/2 mastocytoma cell line); test: FACS on P815-PSA cells; negative control 3
[2] = molecular target: surface of P815-PSA cells (PSA-transfected DBA/2 mastocytoma cell line); test: FACS on P815-PSA cells; negative control 5
[3] = molecular target: surface of Line-1-PSA cells (PSA-transfected Balb/cByJ lung carcinoma cell line); test: FACS on Line 1-PSA cells; negative control 4
[4] = molecular target: surface of Line-1-PSA cells (PSA-transfected Balb/cByJ lung carcinoma cell line); test: FACS on Line 1-PSA cells; negative control 7

- mean fluorescence [1]: 11
- mean fluorescence [2]: 37
- mean fluorescence [3]: 5
- mean fluorescence [4]: 8
Substance: MOPC-21 (antibody)
